Results taken from patent publication US20250195917A1, “SEQUENTIAL TRANSARTERIAL CHEMOEMBOLIZATION, STEREOTACTIC BODY RADIOTHERAPY, AND IMMUNOTHERAPY (START-FIT) FOR HEPATOCELLULAR CARCINOMA” (The University of Hong Kong, priority 2023, published 2025).
Read-outs that look alike come from different tables or passages of the source.

Assay type: in vivo
Conditions: for Edema / Fatigue / Fever / Infusion-related reaction / Musculoskeletal pain / Others (Constitutional) / Weight decreased: Constitutional; for Constipation / Decreased appetite / Diarrhea / Gastritis/GI bleed / Nausea / Others (Gastrointestinal) / Stomatitis / Vomiting: Gastrointestinal; for Any adverse event: worst toxicity grade; for ALT increased / AST increased / Abdominal pain / Bilirubin raised / GGT increased: Hepatic
Experimental: All patients underwent a single treatment of conventional TACE within 28 days of study enrolment. Conventional TACE was performed by supra-selective cannulation of all the branches supplying the tumor. The emulsion was prepared by mixing iodised oil with cisplatin (1 mg/mL) in a 1:1 ratio. A maximum of 60 mL of emulsion was injected. Preparation of the emulsion was followed by embolisation with gelfoam (gelatin granules) pellets of 1 mm diameter mixed with 40 mg of gentamicin. At 28 days (plus or minus 3 days) after the completion of TACE, stereotactic body radiotherapy was delivered to all lesions. Patients were immobilised via a vacuum foam bag (Vac-Lok™; MEDTEC, IA, USA) and active breathing control to reduce liver motion. Imaging was performed on the inhale breath-hold contrast CT. Gross tumor volume was defined as a tumor focus that was visualised by contrast imaging. The clinical target volume was defined as gross tumor volume with expansion to include the area stained with iodised oil. The individualised planning target volume margins were formulated to compensate for respiratory motion and setup errors. Cone beam CT was acquired on board before each treatment. A radiation dose of 27.5-40.0 Gy in five fractions delivered daily was allowed per protocol. The prescription isodose encompassed 95% of the planning target volume. The final dose was determined such that a maximum tumoricidal dose could be delivered to tumors while respecting the tolerance dose of the organ at risk (Table 3). The radiotherapy toxicity was assessed by CTCAE; version 4.01.
All patients underwent baseline contrast-enhanced MRI of the liver and CT of the thorax. Treatment response evaluation was assessed with MRI after cycle 4, cycle 8, and cycle 12 of avelumab and every 12 weeks thereafter (plus or minus 7 days). Radiological imaging was reported using the modified Response Evaluation Criteria in Solid Tumors (mRECIST). A CT of the thorax was done every 26 weeks or at the time of radiological or clinical evidence of disease progression according to mRECIST criteria. All patients were discussed in a multidisciplinary team board meeting of surgeons specializing in liver transplantation and liver surgery, clinical oncologists, interventional radiologists, and diagnostic radiologists. This meeting was held once every 2 weeks to decide resectability and treatment failure. All patients underwent complete tumor staging to exclude distant metastasis before surgery. A board-certified radiologist conducted an independent blinded review in addition to the investigator review. Safety assessments were documented throughout the treatment period. Adverse events were graded according to the US National Cancer Institute Common Terminology Criteria for Adverse Events (CTCAE; version 4.01). The frequency, duration, and severity of adverse events were recorded.
The primary endpoint was the percentage of patients deemed to be amenable to curative treatment after conversion therapy. Amenability for curative treatment was fulfilled when one of the following criteria was met: either a sustained complete response or sustained partial response achieved for at least 2 months and if curative treatment could be performed (based on investigator's review). […] Post-hoc analyses included radiological response according to immune RECIST, correlation of clinical outcomes with BCLC stage, albumin-bilirubin score, radiological assessment criteria, biomarkers, and median time to treatment response.

For avelumab, the Edema (Grade 1-2) was 0 (0%) number of patients (%), the Fatigue (Grade 1-2) was 9 (27%) number of patients (%) and the Fever (Grade 1-2) was 1 (3%) number of patients (%). The Infusion-related reaction (Grade 1-2) was 7 (21%) number of patients (%), the Musculoskeletal pain (Grade 1-2) was 0 (0%) number of patients (%) and the “Others (Constitutional)” value (Grade 1-2) was 9 (27%) number of patients (%). For the same substance, the Weight decreased (Grade 1-2) was 7 (21%) number of patients (%), the Edema (Grade 3) was 0 (0%) number of patients (%) and the Fatigue (Grade 3) was 0 (0%) number of patients (%). The Fever (Grade 3) was 0 (0%) number of patients (%), the Infusion-related reaction (Grade 3) was 0 (0%) number of patients (%) and the Musculoskeletal pain (Grade 3) was 0 (0%) number of patients (%). The “Others (Constitutional)” value (Grade 3) was 0 (0%) number of patients (%), the Weight decreased (Grade 3) was 0 (0%) number of patients (%) and the Edema (Grade 4) was 0 (0%) number of patients (%). The Fatigue (Grade 4) was 0 (0%) number of patients (%), the Fever (Grade 4) was 0 (0%) number of patients (%) and the Infusion-related reaction (Grade 4) was 0 (0%) number of patients (%). The Musculoskeletal pain (Grade 4) was 0 (0%) number of patients (%), the “Others (Constitutional)” value (Grade 4) was 0 (0%) number of patients (%) and the Weight decreased (Grade 4) was 0 (0%) number of patients (%). For the same substance, the Edema (Grade 5) was 0 (0%) number of patients (%), the Fatigue (Grade 5) was 0 (0%) number of patients (%) and the Fever (Grade 5) was 0 (0%) number of patients (%). For the same substance, the Infusion-related reaction (Grade 5) was 0 (0%) number of patients (%), the Musculoskeletal pain (Grade 5) was 0 (0%) number of patients (%) and the “Others (Constitutional)” value (Grade 5) was 0 (0%) number of patients (%). The Weight decreased (Grade 5) was 0 (0%) number of patients (%), the Constipation (Grade 1-2) was 2 (6%) number of patients (%) and the Decreased appetite (Grade 1-2) was 4 (12%) number of patients (%). The Diarrhea (Grade 1-2) was 4 (12%) number of patients (%), the Gastritis/GI bleed (Grade 1-2) was 0 (0%) number of patients (%) and the Nausea (Grade 1-2) was 2 (6%) number of patients (%). For the same substance, the “Others (Gastrointestinal)” value (Grade 1-2) was 3 (9%) number of patients (%), the Stomatitis (Grade 1-2) was 0 (0%) number of patients (%) and the Vomiting (Grade 1-2) was 1 (3%) number of patients (%). For the same substance, the Constipation (Grade 3) was 0 (0%) number of patients (%), the Decreased appetite (Grade 3) was 0 (0%) number of patients (%) and the Diarrhea (Grade 3) was 0 (0%) number of patients (%). For the same substance, the Gastritis/GI bleed (Grade 3) was 0 (0%) number of patients (%), the Nausea (Grade 3) was 0 (0%) number of patients (%) and the “Others (Gastrointestinal)” value (Grade 3) was 0 (0%) number of patients (%). For the same substance, the Stomatitis (Grade 3) was 0 (0%) number of patients (%), the Vomiting (Grade 3) was 0 (0%) number of patients (%) and the Constipation (Grade 4) was 0 (0%) number of patients (%). The Decreased appetite (Grade 4) was 0 (0%) number of patients (%), the Diarrhea (Grade 4) was 0 (0%) number of patients (%) and the Gastritis/GI bleed (Grade 4) was 0 (0%) number of patients (%). The Nausea (Grade 4) was 0 (0%) number of patients (%), the “Others (Gastrointestinal)” value (Grade 4) was 0 (0%) number of patients (%) and the Stomatitis (Grade 4) was 0 (0%) number of patients (%). For the same substance, the Vomiting (Grade 4) was 0 (0%) number of patients (%), the Constipation (Grade 5) was 0 (0%) number of patients (%) and the Decreased appetite (Grade 5) was 0 (0%) number of patients (%). For the same substance, the Diarrhea (Grade 5) was 0 (0%) number of patients (%), the Gastritis/GI bleed (Grade 5) was 0 (0%) number of patients (%) and the Nausea (Grade 5) was 0 (0%) number of patients (%). For the same substance, the “Others (Gastrointestinal)” value (Grade 5) was 0 (0%) number of patients (%), the Stomatitis (Grade 5) was 0 (0%) number of patients (%) and the Vomiting (Grade 5) was 0 (0%) number of patients (%). The “Adverse event, Lead to discontinuation” value (Grade 1-2) was 0 (0%) number of patients (%), the Any adverse event (Grade 1-2) was 27 (82%) number of patients (%) and the “Adverse event, Lead to discontinuation” value (Grade 3) was 1 (3%) number of patients (%). For the same substance, the Any adverse event (Grade 3) was 4 (12%) number of patients (%), the “Adverse event, Lead to discontinuation” value (Grade 4) was 1 (3%) number of patients (%) and the Any adverse event (Grade 4) was 1 (3%) number of patients (%). For the same substance, the “Adverse event, Lead to discontinuation” value (Grade 5) was 0 (0%) number of patients (%), the Any adverse event (Grade 5) was 0 (0%) number of patients (%) and the ALT increased (Grade 1-2) was 7 (21%) number of patients (%). For the same substance, the AST increased (Grade 1-2) was 6 (18%) number of patients (%), the Abdominal pain (Grade 1-2) was 1 (3%) number of patients (%) and the Bilirubin raised (Grade 1-2) was 7 (21%) number of patients (%). The GGT increased (Grade 1-2) was 2 (6%) number of patients (%), the ALT increased (Grade 3) was 2 (6%) number of patients (%) and the AST increased (Grade 3) was 1 (3%) number of patients (%). For the same substance, the Abdominal pain (Grade 3) was 0 (0%) number of patients (%), the Bilirubin raised (Grade 3) was 0 (0%) number of patients (%) and the GGT increased (Grade 3) was 0 (0%) number of patients (%). The ALT increased (Grade 4) was 0 (0%) number of patients (%), the AST increased (Grade 4) was 1 (3%) number of patients (%) and the Abdominal pain (Grade 4) was 0 (0%) number of patients (%). For the same substance, the Bilirubin raised (Grade 4) was 0 (0%) number of patients (%), the GGT increased (Grade 4) was 0 (0%) number of patients (%) and the ALT increased (Grade 5) was 0 (0%) number of patients (%). For the same substance, the AST increased (Grade 5) was 0 (0%) number of patients (%), the Abdominal pain (Grade 5) was 0 (0%) number of patients (%) and the Bilirubin raised (Grade 5) was 0 (0%) number of patients (%).
